The results in this text go back to paper PMC7725843, “Structural and biochemical analyses of an aminoglycoside 2′-N-acetyltransferase from Mycolicibacterium smegmatis” (Scientific Reports, 2020).

Common to all, as to assay: purified protein
Common to all, as to type: biochemical, Mycolicibacterium smegmatis

In data set [1] the test system is CC(=O)SCCNC(=O)CCNC(=O)[C@H](O)C(C)(C)COP(=O)(O)OP(=O)(O)OC[C@H]1O[C@@H](n2cnc3c(N)ncnc32)[C@H](O)[C@@H]1OP(=O)(O)O. The note with it: aminoglycoside co-substrate not told, 50 mM MES pH 6.5, 200 μM DTNB, 25 °C.
Data set [2] relates to NC[C@@H]1O[C@H](O[C@H]2[C@@H](O)[C@H](O[C@@H]3[C@@H](O)[C@H](N)C[C@H](N)[C@H]3O[C@H]3O[C@H](CO)[C@@H](O)[C@H](O)[C@H]3N)O[C@@H]2CO)[C@H](N)[C@@H](O)[C@@H]1O. The note with it: 300 μM acetyl-CoA, 50 mM MES pH 6.5, 200 μM DTNB, 25 °C.
Data set [3] relates to NC[C@H]1O[C@H](O[C@H]2[C@H](O)[C@@H](O[C@H]3O[C@H](CO)[C@@H](O)[C@H](N)[C@H]3O)[C@H](N)C[C@@H]2N)[C@H](N)C[C@@H]1O. The following applies: 300 μM acetyl-CoA, 50 mM MES pH 6.5, 200 μM DTNB, 25 °C.
For data set [4], the system named is NC[C@H]1O[C@H](O[C@H]2[C@H](O)[C@@H](O[C@H]3O[C@H](CO)[C@@H](O)[C@H](N)[C@H]3O)[C@H](N)C[C@@H]2N)[C@H](O)[C@@H](O)[C@@H]1O. The following applies: 300 μM acetyl-CoA, 50 mM MES pH 6.5, 200 μM DTNB, 25 °C.

As a reminder, the kcat is the maximal rate divided by the concentration of active sites. By kcat/Km is commonly meant the turnover number divided by the Michaelis constant. Take “AAC(2′)-Id (Mycolicibacterium smegmatis MC2 155)”: the kcat in data set [1] turned out to be 0.34 ± 0.03 s⁻¹; in data set [2], 1.08 ± 0.06 s⁻¹; in data set [3], 3.34 ± 0.1 s⁻¹; in data set [4], 0.13 ± 0.03 s⁻¹. For the same substance, the kcat/Km turned out to be 5670 ± 1620 M⁻¹ s⁻¹ in data set [1], 10400 ± 2100 M⁻¹ s⁻¹ in data set [2], 18000 ± 1600 M⁻¹ s⁻¹ in data set [3] and 817 ± 620 M⁻¹ s⁻¹ in data set [4]. The figures for the Km result in data set [2], in data set [3] and in data set [4] were “(1.04 ± 0.14) × 10^2 μM”, “(1.86 ± 0.10) × 10^2 μM” and “(1.67 ± 0.84) × 10^2 μM”, respectively.
